Data: US20010010923A1, “MODIFIED CARBOXYPEPTIDASE” (priority 1997, published 2001)

How the values were obtained:
Type in all cases: biochemical
[1] = Transpeptidation of Bz-G-A-R-A-R-A-OH (arginine at P1) with H-Leu-NH2, Table 1; conditions: 2mM substrate, pH 7.5, [E] 0.1 mg/mL
Protocol: The mutant carboxypeptidase enzvmes used in these studies were produced by site-directed mutagenesis, essentially following the procedures described in published PCT Patent Application No. WO 95/20039. In general, oligonucleotides synthesized to encode the amino acid substitution were used to produce the mutant enzymes.
(§1) Transamidation reactions were carried out generally as described in PCT Application WO 95/20039. In general, the method included dissolving the nucleophile (H-Leu-NH2, unless otherwise indicated) in 50 mM HEPES, 5 mM EDTA and adjusting the pH to 7.5, 5 μl of peptide substrate (8 mM Bz-G-A-R-A-R-A-OH, unless otherwise indicated, in methanol) was added to 190 μl nucleophile solution followed by 5 μl enzyme, […]
(§2) During the reaction, 20 μl aliquots were removed from the reaction mixture and added to 50 μl 1% trifluoroacetic acid to quench the reaction. The reactant composition was determined by HPLC using a Waters HPLC equipped with a C-18 Waters Novapac 4μ reverse phase column and various gradients of acetonitrile in 0.1% trifluoroacetic acid. The separation was monitored at 254 nm allowing the direct quantification of the products from the integrated peak areas. The composition of the reaction mixture was determined at least twvice during the reaction, the first when 20-50% (preferably 35%) of the substrate had been consumed in the reaction and the second time when 50-90% (preferably 80%) of the peptide substrate had been consumed.
The reaction products were collected and identified by amino acid analysis after acid hydrolysis using a Pharmacia Alpha Plus analyzer. Further identification was obtained by co-chromatography of authentic standard compounds.
(§3) The fraction of aminolysis (fa) was expressed as the ratio between the formed aminolysis product and the sum of all products formed. Unconsumed substrate was disregarded in the calculations.

[2] = Transpeptidation of Bz-G-A-R-A-R-X-OH at pH 7.5 at 50% substrate consumption, Table 4; set-up: key to fa: fraction: aminolysis product / sum of all products formed; conditions: for Pmax (peak product yield) / fa: 375 mM H-Leu-NH2; for fa / t: 50% substrate consumption; for t: 375 mM H-Leu-NH2, 2 mM substrate, [E] 0.1 mg/mL
Protocol: (§4) Transamidation reactions were carried out generally as described in PCT Application WO 95/20039. In general, the method included dissolving the nucleophile (H-Leu-NH2, unless otherwise indicated) in 50 mM HEPES, 5 mM EDTA and adjusting the pH to 7.5, 5 μl of peptide substrate (8 mM Bz-G-A-R-A-R-A-OH, unless otherwise indicated, in methanol) was added to 190 μl nucleophile solution followed by 5 μl enzyme, resulting in a substrate concentration of 0.2 mM.
as §2, §3
Site specific mutagenesis was performed as described for Example 1 to generate the specific mutants described below. Transamidation reactions were performed as described for Examples 1.

[3] = Transpeptidation of Bz-G-A-R-A-R-X-OH at pH 6.5 at 50% substrate consumption, Table 5; set-up: key to fa: fa = aminolysis product / sum of all products formed; conditions: for Pmax (peak product yield) / fa: 750 mM H-Leu-NH2; for fa / t: 50% substrate consumption; for t: 750 mM H-Leu-NH2, 2 mM substrate, [E] 0.1 mg/mL
Protocol: as §4, with “[…],” for “5 mM EDTA and adjusting the pH to 7.5,”
as §2
The fraction of aminolysis (fa) was expressed as the ratio between the formed aminolysis product and the sum of all products formed. Unconsumed substrate was disregarded in the calculations. […]

[4] = Transamidation of Bz-G-A-R-A-R-A-OH, Table 6; conditions: H-Leu-NH2 375 mM, pH 7.5, [E] 0.1 mg/mL
Protocol: as §1, §2, §3
Site specific mutagenesis was performed as described for Example 1 to generate the specific mutants described below. Transamidation reactions were performed as described in the previous examples.

[5] = Transamidation of FA-Arg-Ala-OH, Table 6; conditions: H-Leu-NH2 375 mM, pH 7.5, [E] 0.1 mg/mL
[6] = Transamidation of Bz-G-A-R-A-R-A-OH, Table 6; conditions: [S] = 2 mM; H-Leu-NH2 375 mM; pH 7.5; [E] 0.1 mg/mL

B1: L178S: carboxypeptidase Y S1 mutant, substitution L178S (protein, UniProt P00729 112-532, looked up, variant L178S)
Carboxypeptidase Y: KIKDPKILGIDPNVTQYTGYLDVEDEDKHFFFWTFESRNDPAKDPVILWLNGGPGCSSLTGLFFELGPSSIGPDLKPIGNPYSWNSNATVIFLDQPVNVGFSYSGSSGVSNTVAAGKDVYNFLELFFDQFPEYVNKGQDFHIAGESYAGHYIPVFASEILSHKDRNFNLTSVLIGNGSTDPLTQYNYYEPMACGEGGEPSVLPSEECSAMEDSLERCLGLIESCYDSQSVWSCVPATIYCNNAQLAPYQRTGRNVYDIRKDCEGGNLCYPTLQDIDDYLNQDYVKEAVGAEVDHYESCNFDINRNFLFAGDWMKPYHTAVTDLLNQDLPILVYAGDKDFICNWLGNKAWTDVLPWKYDEEFASQKVRNWTASITDEVAGEVKSYKHFTYLRVFNGGHMVPFDVPENALSMVNEWIHGGFSL
**Q.** Which “fa (fraction of aminolysis)” value ([1]; [N] 375 mM H-Leu-NH2) does the source give for B1 here?
**A.** 0.72

**Q.** And the “Pmax (peak product yield)” value ([2]; leaving group A)?
**A.** 0.63

**Q.** And the fa ([2]; leaving group A)?
**A.** 0.73

**Q.** And the “t” value ([2]; leaving group A)?
**A.** 14 min

**Q.** And the “Pmax (peak product yield)” value ([2]; leaving group I)?
**A.** 0

**Q.** What about the fa ([2]; leaving group I) of the same molecule?
**A.** 0

**Q.** What about the “t” value ([2]; leaving group I) of the same molecule?
**A.** 26 min

**Q.** What about the “Pmax (peak product yield)” value ([2]; leaving group L) of the same molecule?
**A.** 0.01

**Q.** What about the fa ([2]; leaving group L) of the same molecule?
**A.** 0.01

**Q.** What about the “t” value ([2]; leaving group L) of the same molecule?
**A.** 2.1 min

**Q.** What about the “Pmax (peak product yield)” value ([2]; leaving group M) of the same molecule?
**A.** 0

**Q.** What about the fa ([2]; leaving group M) of the same molecule?
**A.** 0

**Q.** What about the “t” value ([2]; leaving group M) of the same molecule?
**A.** 28 min

**Q.** And the “Pmax (peak product yield)” value ([2]; leaving group S)?
**A.** 0.38

**Q.** What about the fa ([2]; leaving group S) of the same molecule?
**A.** 0.65

**Q.** What about the “t” value ([2]; leaving group S) of the same molecule?
**A.** 790 min

**Q.** What about the “Pmax (peak product yield)” value ([2]; leaving group V) of the same molecule?
**A.** 0

**Q.** What about the fa ([2]; leaving group V) of the same molecule?
**A.** 0

**Q.** And the “t” value ([2]; leaving group V)?
**A.** 40 min

**Q.** What about the “Pmax (peak product yield)” value ([3]; leaving group A) of the same molecule?
**A.** 0.74

**Q.** And the fa ([3]; leaving group A)?
**A.** 0.79

**Q.** What about the “t” value ([3]; leaving group A) of the same molecule?
**A.** 34 min

**Q.** What about the “Pmax (peak product yield)” value ([3]; leaving group L) of the same molecule?
**A.** 0.03

**Q.** And the fa ([3]; leaving group L)?
**A.** 0.03

**Q.** What about the “t” value ([3]; leaving group L) of the same molecule?
**A.** 17 min

**Q.** What about the “Pmax (peak product yield)” value ([3]; leaving group S) of the same molecule?
**A.** 0.63

**Q.** What about the fa ([3]; leaving group S) of the same molecule?
**A.** 0.34

**Q.** And the “t” value ([3]; leaving group S)?
**A.** 108 min

**Q.** And the Pmax ([4]; [S] = 2 mM)?
**A.** 0.61

**Q.** What about the Pmax ([5]; [S] = 2 mM) of the same molecule?
**A.** 0.76

**Q.** What about the fa ([5]; [S] = 2 mM) of the same molecule?
**A.** 0.89

**Q.** And the fa [6]?
**A.** 0.77

B2: N241E: carboxypeptidase Y S1 mutant, substitution N241E (protein, UniProt P00729 112-532, looked up, variant N241E)
Carboxypeptidase Y: KIKDPKILGIDPNVTQYTGYLDVEDEDKHFFFWTFESRNDPAKDPVILWLNGGPGCSSLTGLFFELGPSSIGPDLKPIGNPYSWNSNATVIFLDQPVNVGFSYSGSSGVSNTVAAGKDVYNFLELFFDQFPEYVNKGQDFHIAGESYAGHYIPVFASEILSHKDRNFNLTSVLIGNGLTDPLTQYNYYEPMACGEGGEPSVLPSEECSAMEDSLERCLGLIESCYDSQSVWSCVPATIYCENAQLAPYQRTGRNVYDIRKDCEGGNLCYPTLQDIDDYLNQDYVKEAVGAEVDHYESCNFDINRNFLFAGDWMKPYHTAVTDLLNQDLPILVYAGDKDFICNWLGNKAWTDVLPWKYDEEFASQKVRNWTASITDEVAGEVKSYKHFTYLRVFNGGHMVPFDVPENALSMVNEWIHGGFSL
**Q.** Which results are given for B2?
**A.** fa (fraction of aminolysis) ([1]; [N] 50 mM H-Leu-NH2): 0.27; Pmax ([4]; [S] = 0.2 mM): 0.25; fa ([4]; [S] = 0.2 mM): 0.43; Pmax ([4]; [S] = 2 mM): 0.25; Pmax ([5]; [S] = 0.2 mM): 0.49; fa ([5]; [S] = 0.2 mM): 0.70; fa ([5]; [S] = 2 mM): 0.92; fa [6]: 0.47

B3: W312D: carboxypeptidase Y S1 mutant, substitution W312D (protein, UniProt P00729 112-532, looked up, variant W312D)
Carboxypeptidase Y: KIKDPKILGIDPNVTQYTGYLDVEDEDKHFFFWTFESRNDPAKDPVILWLNGGPGCSSLTGLFFELGPSSIGPDLKPIGNPYSWNSNATVIFLDQPVNVGFSYSGSSGVSNTVAAGKDVYNFLELFFDQFPEYVNKGQDFHIAGESYAGHYIPVFASEILSHKDRNFNLTSVLIGNGLTDPLTQYNYYEPMACGEGGEPSVLPSEECSAMEDSLERCLGLIESCYDSQSVWSCVPATIYCNNAQLAPYQRTGRNVYDIRKDCEGGNLCYPTLQDIDDYLNQDYVKEAVGAEVDHYESCNFDINRNFLFAGDDMKPYHTAVTDLLNQDLPILVYAGDKDFICNWLGNKAWTDVLPWKYDEEFASQKVRNWTASITDEVAGEVKSYKHFTYLRVFNGGHMVPFDVPENALSMVNEWIHGGFSL
**Q.** Which “fa (fraction of aminolysis)” value ([1]; [N] 375 mM H-Leu-NH2) does the source give for B3 here?
**A.** 0.15

**Q.** And the Pmax ([4]; [S] = 2 mM)?
**A.** 0.08

**Q.** And the Pmax ([5]; [S] = 2 mM)?
**A.** 0.67

**Q.** And the fa ([5]; [S] = 2 mM)?
**A.** 0.77

**Q.** And the fa [6]?
**A.** 0.16

B4: N241D: carboxypeptidase Y mutant, substitution N241D (protein, UniProt P00729 112-532, looked up, variant N241D)
Carboxypeptidase Y: KIKDPKILGIDPNVTQYTGYLDVEDEDKHFFFWTFESRNDPAKDPVILWLNGGPGCSSLTGLFFELGPSSIGPDLKPIGNPYSWNSNATVIFLDQPVNVGFSYSGSSGVSNTVAAGKDVYNFLELFFDQFPEYVNKGQDFHIAGESYAGHYIPVFASEILSHKDRNFNLTSVLIGNGLTDPLTQYNYYEPMACGEGGEPSVLPSEECSAMEDSLERCLGLIESCYDSQSVWSCVPATIYCDNAQLAPYQRTGRNVYDIRKDCEGGNLCYPTLQDIDDYLNQDYVKEAVGAEVDHYESCNFDINRNFLFAGDWMKPYHTAVTDLLNQDLPILVYAGDKDFICNWLGNKAWTDVLPWKYDEEFASQKVRNWTASITDEVAGEVKSYKHFTYLRVFNGGHMVPFDVPENALSMVNEWIHGGFSL
**Q.** With B4 as the molecule, how does the Pmax ([4]; [S] = 2 mM) read?
**A.** 0.09

**Q.** And the Pmax ([5]; [S] = 2 mM)?
**A.** 0.56

**Q.** And the fa ([5]; [S] = 2 mM)?
**A.** 0.85

**Q.** And the fa [6]?
**A.** 0.15

B5: L245E: carboxypeptidase Y S1 mutant, substitution L245E (protein, UniProt P00729 112-532, looked up, variant L245E)
Carboxypeptidase Y: KIKDPKILGIDPNVTQYTGYLDVEDEDKHFFFWTFESRNDPAKDPVILWLNGGPGCSSLTGLFFELGPSSIGPDLKPIGNPYSWNSNATVIFLDQPVNVGFSYSGSSGVSNTVAAGKDVYNFLELFFDQFPEYVNKGQDFHIAGESYAGHYIPVFASEILSHKDRNFNLTSVLIGNGLTDPLTQYNYYEPMACGEGGEPSVLPSEECSAMEDSLERCLGLIESCYDSQSVWSCVPATIYCNNAQEAPYQRTGRNVYDIRKDCEGGNLCYPTLQDIDDYLNQDYVKEAVGAEVDHYESCNFDINRNFLFAGDWMKPYHTAVTDLLNQDLPILVYAGDKDFICNWLGNKAWTDVLPWKYDEEFASQKVRNWTASITDEVAGEVKSYKHFTYLRVFNGGHMVPFDVPENALSMVNEWIHGGFSL
**Q.** Which results are given for B5?
**A.** fa (fraction of aminolysis) ([1]; [N] 50 mM H-Leu-NH2): 0.07; fa (fraction of aminolysis) ([1]; [N] 375 mM H-Leu-NH2): 0.18; Pmax ([4]; [S] = 2 mM): 0.09; Pmax ([5]; [S] = 2 mM): 0.73; fa ([5]; [S] = 2 mM): 0.83; fa [6]: 0.20
